Experimental data: PMC8024259, “The Pah-R261Q mouse reveals oxidative stress associated with amyloid-like hepatic aggregation of mutant phenylalanine hydroxylase” (Nature Communications, 2021)
Numbering of substitutions follows the chain as printed. Names may count otherwise.

Molecular target: the molecule itself
Assay: SEC; preparative isolation of the tetramer after Factor Xa cleavage; Superdex HiLoad 16/600 200, 20 mM Hepes pH 7, 200 mM NaCl

B1: Recombinant human WT-PAH (phenylalanine hydroxylase) (enzyme, UniProt P00439 1-452, looked up)
chain: MSTAVLENPGLGRKLSDFGQETSYIEDNCNQNGAISLIFSLKEEVGALAKVLRLFEENDVNLTHIESRPSRLKKDEYEFFTHLDKRSLPALTNIIKILRHDIGATVHELSRDKKKDTVPWFPRTIQELDRFANQILSYGAELDADHPGFKDPVYRARRKQFADIAYNYRHGQPIPRVEYMEEEKKTWGTVFKTLKSLYKTHACYEYNHIFPLLEKYCGFHEDNIPQLEDVSQFLQTCTGFRLRPVAGLLSSRDFLGGLAFRVFHCTQYIRHGSKPMYTPEPDICHELLGHVPLFSDRSFAQFSQEIGLASLGAPDEYIEKLATIYWFTVEFGLCKQGDSIKAYGAGLLSSFGELQYCLSEKPKLLPLELEKTAIQNYTVTEFQPLYYVAESFNDAKEKVRNFAATIPRPFSVRYDPYTQRIEVLDNTQQLKILADSINSEIGILCSALQKIK
notes: phenylalanine hydroxylase, human, expressed from pMAL as MBP-(pep)xa-PAH and cleaved with Factor Xa; source: E. coli TB1, purified (amylose resin, Factor Xa cleavage, SEC); not shown: MBP, N-terminal, cleaved
  stoichiometry N: 4

B2: Recombinant human p.R261Q-PAH (phenylalanine hydroxylase, p.Arg261Gln variant) (enzyme, UniProt P00439 1-452, looked up)
chain: B1 chain with R261Q
notes: phenylalanine hydroxylase, human, PKU patient variant p.R261Q, expressed from pMAL as MBP-(pep)xa-PAH and cleaved with Factor Xa; Variant that occurs in PKU patients (c.782G>A); also called p.PAH-R261Q; source: E. coli TB1, purified (amylose resin, Factor Xa cleavage, SEC); not shown: MBP, N-terminal, cleaved
  stoichiometry N: 4
